Experimental findings from PMC4811699 (Biochemistry, 2016) are described below.

The data set deals with the molecule itself. Kind of data set: crystal structure.

B1: Methanococcus jannaschii Thi4 (thiazole synthase) (enzyme)
chain: MVNLMNIKDIKLNADETKTTKAILKASFDMWLDIVEADVVIVGAGPSGLTCARYLAKEGFKVVVLERHLAFGGGTWGGGMGFPYIVVEEPADELLREVGIKLIDMGDGYYVADSVEVPAKLAVAAMDAGAKILTGIVVEDLILREDGVAGVVINSYAIERAGLHIDPLTIRSKVVVDATGHEASIVNILVKKNKLEADVPGEKSMWAEKGENALLRNTREVYPNLFVCGMAANASHGGYRMGAIFGGMYLSGKLCAELITEKLKNKE
For the protein B1, the “stoichiometry N” value is 8.
